# Data taken from patent US20050064507.
# T1: MAP3K14 peptide WKGKRRSKARKKRK (SEQ ID NO:100) (not fully specified)
# T1 chain: WKGKRRSKARKKRK
# T2: ARHGAP6 peptide SAQITIPKDGQKRKKSLRKK (SEQ ID NO:156) (not fully specified)
# T2 chain: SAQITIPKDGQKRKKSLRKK
# T3: NIK peptide TEGKMARVAWKGKRRSKARK (SEQ ID NO:164) (not fully specified)
# T3 chain: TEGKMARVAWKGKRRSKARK
# T4: fit1 peptide VQMTWSYPDEKNKRASVRRR (SEQ ID NO:158) (not fully specified)
# T4 chain: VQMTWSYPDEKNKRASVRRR
# T5: ADD2 peptide KKKFRTPSFLKKSKK (SEQ ID NO:95) (not fully specified)
# T5 chain: KKKFRTPSFLKKSKK
# T6: PLD1 peptide KYKAFIRIPIPTRRHTFRRQ (SEQ ID NO:161) (not fully specified)
# T6 chain: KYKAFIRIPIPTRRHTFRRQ
# T7: gravin peptide KKFFTQGWAGWRKKTSFRKP (SEQ ID NO:154) (not fully specified)
# T7 chain: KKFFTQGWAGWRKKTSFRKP
# T8: SYTL4 peptide RQGKRKTSIKRDTVNPL (SEQ ID NO:87) (not fully specified)
# T8 chain: RQGKRKTSIKRDTVNPL
# T9: ARHGAP6 peptide DGQKRKKSLRKKLD (SEQ ID NO:92) (not fully specified)
# T9 chain: DGQKRKKSLRKKLD
# T10: AKAP12 peptide AGWRKKTSFRKPKED (SEQ ID NO:99) (not fully specified)
# T10 chain: AGWRKKTSFRKPKED
# T11: cyclophilin G peptide TEEKSKKRKKKHRKNSRKHK (SEQ ID NO:165) (not fully specified)
# T11 chain: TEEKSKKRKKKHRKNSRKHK
# T12: PLEK peptide KFARKSTRRSIRLPE (SEQ ID NO:78) (not fully specified)
# T12 chain: KFARKSTRRSIRLPE
# T13: p47phox peptide QAQRQIKRGAPPRRSSIRNA (SEQ ID NO:146) (not fully specified)
# T13 chain: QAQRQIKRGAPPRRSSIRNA
# T14: FLJ20574 peptide GENVLKKSMKSRVKG (SEQ ID NO:113) (not fully specified)
# T14 chain: GENVLKKSMKSRVKG
# T15: dag kinase iota peptide PQNSLKASNRKKKRTSFKRK (SEQ ID NO:151) (not fully specified)
# T15 chain: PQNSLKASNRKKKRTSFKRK
# T16: DGKZ peptide KKKKRASFKRKSSKKG (SEQ ID NO:77) (not fully specified)
# T16 chain: KKKKRASFKRKSSKKG
# T17: dag kinase iota peptide NRKKKRTSFKRKA (SEQ ID NO:115) (not fully specified)
# T17 chain: NRKKKRTSFKRKA
# T18: phospholemman peptide EEGTFRSSIRRLSTRRR (SEQ ID NO:116) (not fully specified)
# T18 chain: EEGTFRSSIRRLSTRRR
# T19: ANK1 peptide AQIVKRASLKRGKQ (SEQ ID NO:90) (not fully specified)
# T19 chain: AQIVKRASLKRGKQ
# T20: PSCDBP peptide LSSMFGTLPRKSRKGSVRKQ (SEQ ID NO:144) (not fully specified)
# T20 chain: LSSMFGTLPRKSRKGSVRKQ
# T21: SPTBN4 peptide EGGDRRASGRRK (SEQ ID NO:110) (not fully specified)
# T21 chain: EGGDRRASGRRK
# T22: dag kinase iota peptide NRKKKRTSFKRKA (SEQ ID NO:117) (not fully specified)
# T22 chain: NRKKKRTSFKRKA
# T23: CHRM1 peptide RKIPKRPGSVHRTPSRQ (SEQ ID NO:83) (not fully specified)
# T23 chain: RKIPKRPGSVHRTPSRQ
# T24: MLK3 peptide QQVDRERPHVRRRRGTFKRS (SEQ ID NO:128) (not fully specified)
# T24 chain: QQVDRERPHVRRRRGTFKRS
# T25: MGC2941 peptide RPTPGDGEKRSRIKKSKKRK (SEQ ID NO:139) (not fully specified)
# T25 chain: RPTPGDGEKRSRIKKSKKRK
# T26: MARCKS peptide KKKRFSFKKSFKLSGFSFKK (SEQ ID NO:111) (not fully specified)
# T26 chain: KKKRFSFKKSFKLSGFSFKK
# T27: p164-RhoGEF peptide PRLIRRGSKKRPAR (SEQ ID NO:82) (not fully specified)
# T27 chain: PRLIRRGSKKRPAR
# T28: PPP1R14A peptide QKRHARVTVKYDRRE (SEQ ID NO:107) (not fully specified)
# T28 chain: QKRHARVTVKYDRRE
# T29: Urotensin-2 receptor peptide LYARLARAYRRSQRASFKRA (SEQ ID NO:159) (not fully specified)
# T29 chain: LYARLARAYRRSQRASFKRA
# T30: p164-RhoGEF peptide PRLIRRGSKKRPAR (SEQ ID NO:124) (not fully specified)
# T30 chain: PRLIRRGSKKRPAR
# B1: PKC-zeta (protein)
# chain: MPSRTGPKMEGSGGRVRLKAHYGGDIFITSVDAATTFEELCEEVRDMCRLHQQHPLTLKWVDSEGDPCTVSSQMELEEAFRLARQCRDEGLIIHVFPSTPEQPGLPCPGEDKSIYRRGARRWRKLYRANGHLFQAKRFNRRAYCGQCSERIWGLARQGYRCINCKLLVHKRCHGLVPLTCRKHMDSVMPSQEPPVDDKNEDADLPSEETDGIAYISSSRKHDSIKDDSEDLKPVIDGMDGIKISQGLGLQDFDLIRVIGRGSYAKVLLVRLKKNDQIYAMKVVKKELVHDDEDIDWVQTEKHVFEQASSNPFLVGLHSCFQTTSRLFLVIEYVNGGDLMFHMQRQRKLPEEHARFYAAEICIALNFLHERGIIYRDLKLDNVLLDADGHIKLTDYGMCKEGLGPGDTTSTFCGTPNYIAPEILRGEEYGFSVDWWALGVLMFEMMAGRSPFDIITDNPDMNTEDYLFQVILEKPIRIPRFLSVKASHVLKGFLNKDPKERLGCRPQTGFSDIKSHAFFRSIDWDLLEKKQALPPFQPQITDDYGLDNFDTQFTSEPVQLTPDDEDAIKRIDQSEFEGFEYINPLLLSTEESV
# Key:
# [1] = molecular target: T1, MAP3K14 peptide WKGKRRSKARKKRK (SEQ ID …)
# [2] = molecular target: T2, ARHGAP6 peptide SAQITIPKDGQKRKKSLRKK …
# [3] = molecular target: T3, NIK peptide TEGKMARVAWKGKRRSKARK (SEQ …)
# [4] = molecular target: T4, fit1 peptide VQMTWSYPDEKNKRASVRRR (SEQ …)
# [5] = molecular target: T5, ADD2 peptide KKKFRTPSFLKKSKK (SEQ ID …)
# [6] = molecular target: T6, PLD1 peptide KYKAFIRIPIPTRRHTFRRQ (SEQ …)
# [7] = molecular target: T7, gravin peptide KKFFTQGWAGWRKKTSFRKP …
# [8] = molecular target: T8, SYTL4 peptide RQGKRKTSIKRDTVNPL (SEQ ID …)
# [9] = molecular target: T9, ARHGAP6 peptide DGQKRKKSLRKKLD (SEQ ID …)
# [10] = molecular target: T10, AKAP12 peptide AGWRKKTSFRKPKED (SEQ ID …)
# [11] = molecular target: T11, cyclophilin G peptide …
# [12] = molecular target: T12, PLEK peptide KFARKSTRRSIRLPE (SEQ ID …)
# [13] = molecular target: T13, p47phox peptide QAQRQIKRGAPPRRSSIRNA …
# [14] = molecular target: T14, FLJ20574 peptide GENVLKKSMKSRVKG (SEQ …)
# [15] = molecular target: T15, dag kinase iota peptide …
# [16] = molecular target: T16, DGKZ peptide KKKKRASFKRKSSKKG (SEQ ID …)
# [17] = molecular target: T17, dag kinase iota peptide NRKKKRTSFKRKA …
# [18] = molecular target: T18, phospholemman peptide EEGTFRSSIRRLSTRRR …
# [19] = molecular target: T19, ANK1 peptide AQIVKRASLKRGKQ (SEQ ID …)
# [20] = molecular target: T20, PSCDBP peptide LSSMFGTLPRKSRKGSVRKQ …
# [21] = molecular target: T21, SPTBN4 peptide EGGDRRASGRRK (SEQ ID …)
# [22] = molecular target: T22, dag kinase iota peptide NRKKKRTSFKRKA …
# [23] = molecular target: T23, CHRM1 peptide RKIPKRPGSVHRTPSRQ (SEQ ID …)
# [24] = molecular target: T24, MLK3 peptide QQVDRERPHVRRRRGTFKRS (SEQ …)
# [25] = molecular target: T25, MGC2941 peptide RPTPGDGEKRSRIKKSKKRK …
# [26] = molecular target: T26, MARCKS peptide KKKRFSFKKSFKLSGFSFKK …
# [27] = molecular target: T27, p164-RhoGEF peptide PRLIRRGSKKRPAR (SEQ …)
# [28] = molecular target: T28, PPP1R14A peptide QKRHARVTVKYDRRE (SEQ …)
# [29] = molecular target: T29, Urotensin-2 receptor peptide …
# [30] = molecular target: T30, p164-RhoGEF peptide PRLIRRGSKKRPAR (SEQ …)
protein,measurement,setting,value
B1,in vitro phosphorylation (% of best substrate),[1],8
same,"in vitro phosphorylation, 1 uM peptide (% of best substrate)",[2],15
same,"in vitro phosphorylation, 10 uM peptide (% of best substrate)",[2],44
same,"in vitro phosphorylation, 1 uM peptide (% of best substrate)",[3],3
same,"in vitro phosphorylation, 10 uM peptide (% of best substrate)",[3],2
same,"in vitro phosphorylation, 1 uM peptide (% of best substrate)",[4],11
same,"in vitro phosphorylation, 10 uM peptide (% of best substrate)",[4],72
same,in vitro phosphorylation (% of best substrate),[5],5
same,"in vitro phosphorylation, 1 uM peptide (% of best substrate)",[6],15
same,"in vitro phosphorylation, 10 uM peptide (% of best substrate)",[6],9
same,"in vitro phosphorylation, 1 uM peptide (% of best substrate)",[7],27
same,"in vitro phosphorylation, 10 uM peptide (% of best substrate)",[7],23
same,in vitro phosphorylation (% of best substrate),[8],3
same,in vitro phosphorylation (% of best substrate),[9],2
same,in vitro phosphorylation (% of best substrate),[10],10
same,"in vitro phosphorylation, 1 uM peptide (% of best substrate)",[11],1
same,"in vitro phosphorylation, 10 uM peptide (% of best substrate)",[11],2
same,in vitro phosphorylation (% of best substrate),[12],100
same,"in vitro phosphorylation, 1 uM peptide (% of best substrate)",[13],32
same,"in vitro phosphorylation, 10 uM peptide (% of best substrate)",[13],56
same,in vitro phosphorylation (% of best substrate),[14],1
same,"in vitro phosphorylation, 1 uM peptide (% of best substrate)",[15],15
same,"in vitro phosphorylation, 10 uM peptide (% of best substrate)",[15],28
same,in vitro phosphorylation (% of best substrate),[16],60
same,"in vitro phosphorylation, 1 uM peptide (% of best substrate)",[17],11
same,"in vitro phosphorylation, 10 uM peptide (% of best substrate)",[17],10
same,"in vitro phosphorylation, 1 uM peptide (% of best substrate)",[18],100
same,"in vitro phosphorylation, 10 uM peptide (% of best substrate)",[18],100
same,in vitro phosphorylation (% of best substrate),[19],5
same,"in vitro phosphorylation, 1 uM peptide (% of best substrate)",[20],16
same,"in vitro phosphorylation, 10 uM peptide (% of best substrate)",[20],54
same,in vitro phosphorylation (% of best substrate),[21],3
same,"in vitro phosphorylation, 1 uM peptide (% of best substrate)",[22],20
same,"in vitro phosphorylation, 10 uM peptide (% of best substrate)",[22],11
same,in vitro phosphorylation (% of best substrate),[23],4
same,"in vitro phosphorylation, 1 uM peptide (% of best substrate)",[24],14
same,"in vitro phosphorylation, 10 uM peptide (% of best substrate)",[24],9
same,"in vitro phosphorylation, 1 uM peptide (% of best substrate)",[25],1
same,"in vitro phosphorylation, 10 uM peptide (% of best substrate)",[25],1
same,in vitro phosphorylation (% of best substrate),[26],9
same,in vitro phosphorylation (% of best substrate),[27],38
same,in vitro phosphorylation (% of best substrate),[28],1
same,"in vitro phosphorylation, 1 uM peptide (% of best substrate)",[29],25
same,"in vitro phosphorylation, 10 uM peptide (% of best substrate)",[29],41
same,"in vitro phosphorylation, 1 uM peptide (% of best substrate)",[30],45
same,"in vitro phosphorylation, 10 uM peptide (% of best substrate)",[30],32
